Measurements as given in the RNAGym collection of RNA variant scans (doi:10.7554/elife.90254).

B1: LINE1-mini (parent)
chain: GGCAGAGCUCAACACAGCGUGGCAAAGUGGCUGUGGCUAGACUGCC

Variants of: B1
Assay: self-cleavage, relative activity (ratio to wild type); higher = more cleavage; in vitro, sequencing; the parent is a self-cleaving ribozyme

Variant	self-cleavage
GGCAGAGCGCAACACAGCGUGGCUAAGUGGCUGUGGCUAGACUGCC [U9G A24U]	0.18
GGCAGAGCGCAACACAGCGUGGCCAAGUGGCUGUGGCUAGACUGCC [U9G A24C]	0.07
GGCAGAGCGCAACACAGCGUGGCAAAGUGGCUGUGGCUAGACCGCC [U9G U43C]	0.04
GGCAGAGCGCAACACAGCGUGGCAAAGUGGCUGUGGCUAGACAGCC [U9G U43A]	0.07
GGCAGAGCGCAACACAGCGUGGCAAAGUGGCUGUGGCUAGAUUGCC [U9G C42U]	0.05
GGCAGAGCGCAACACAGCGUGGCAAAGUGGCUGUGGCUAGAGUGCC [U9G C42G]	0.06
GGCAGAGCGCAACACAGCGUGGCAAAGUGGCUGUGGCUAGAAUGCC [U9G C42A]	0.08
GGCAGAGCGCAACACACCGUGGCAAAGUGGCUGUGGCUAGACUGCC [U9G G17C]	0.1
GGCAGAGCGCAACACAACGUGGCAAAGUGGCUGUGGCUAGACUGCC [U9G G17A]	0.12
GGCAGAGCGCAACACAUCGUGGCAAAGUGGCUGUGGCUAGACUGCC [U9G G17U]	0.08
GGCAGAGCGCAACACAGCGUGGCAAGGUGGCUGUGGCUAGACUGCC [U9G A26G]	0.04
GGCAGAGCGCAACACAGCGUGGCAAUGUGGCUGUGGCUAGACUGCC [U9G A26U]	0.15
GGCAGAGCGCAACACAGCGUGGCAACGUGGCUGUGGCUAGACUGCC [U9G A26C]	0.21
GGCAGAGCGCAACACAGCGUGGCAAAGUGGCUGUGGCUAGACUACC [U9G G44A]	0.12
GGCAGAGCGCAACACAGCGUGGCAAAGUGGCUGUGGCUAGACUCCC [U9G G44C]	0.03
GGCAGAGCGCAACACAGCGUGGCAAAGUGGCUGUGGCUAGACUUCC [U9G G44U]	0.08
GGCAGAGCGCAACACAGCAUGGCAAAGUGGCUGUGGCUAGACUGCC [U9G G19A]	0.18
GGCAGAGCGCAACACAGCUUGGCAAAGUGGCUGUGGCUAGACUGCC [U9G G19U]	0.1
GGCAGAGCGCAACACAGCCUGGCAAAGUGGCUGUGGCUAGACUGCC [U9G G19C]	0.06

Variant	self-cleavage
GGCAGAGCGCAACGCAGCGUGGCAAAGUGGCUGUGGCUAGACUGCC [U9G A14G]	0.12
GGCAGAGCGCAACUCAGCGUGGCAAAGUGGCUGUGGCUAGACUGCC [U9G A14U]	0.06
GGCAGAGCGCAACCCAGCGUGGCAAAGUGGCUGUGGCUAGACUGCC [U9G A14C]	0.2
GGCAGAGCGCAACACAGCGUGGCAAAGUGGCUGUGGCUAUACUGCC [U9G G40U]	0.08
GGCAGAGCGCAACACAGCGUGGCAAAGUGGCUGUGGCUACACUGCC [U9G G40C]	0.08
GGCAGAGCGCAACACAGCGUGGCAAAGUGGCUGUGGCUAAACUGCC [U9G G40A]	0.08
GGCAGAGCGCAACACCGCGUGGCAAAGUGGCUGUGGCUAGACUGCC [U9G A16C]	0.03
GGCAGAGCGCAACACUGCGUGGCAAAGUGGCUGUGGCUAGACUGCC [U9G A16U]	0.14
GGCAGAGCGCAACACGGCGUGGCAAAGUGGCUGUGGCUAGACUGCC [U9G A16G]	0.07
GGCAGAGCGCAACACAGCGUGGAAAAGUGGCUGUGGCUAGACUGCC [U9G C23A]	0.11
GGCAGAGCGCAACACAGCGUGGUAAAGUGGCUGUGGCUAGACUGCC [U9G C23U]	0.07
GGCAGAGCGCAACACAGCGUGGGAAAGUGGCUGUGGCUAGACUGCC [U9G C23G]	0.15
GGCAGAGCGCAACACAGCGUGGCAAAGUGGCUGUGGAUAGACUGCC [U9G C37A]	0.22
GGCAGAGCGCAACACAGCGUGGCAAAGUGGCUGUGGGUAGACUGCC [U9G C37G]	0.05
GGCAGAGCGCAACACAGCGUGGCAAAGUGGCUGUGGUUAGACUGCC [U9G C37U]	0.15
GGCAGAGCGCAACACAGCGUGGCAAAGCGGCUGUGGCUAGACUGCC [U9G U28C]	0.04
GGCAGAGCGCAACACAGCGUGGCAAAGAGGCUGUGGCUAGACUGCC [U9G U28A]	0.11
GGCAGAGCGCAACACAGCGUGGCAAAGGGGCUGUGGCUAGACUGCC [U9G U28G]	0.06
GGCAGAGCGCGACACAGCGUGGCAAAGUGGCUGUGGCUAGACUGCC [U9G A11G]	0.02

Variant	self-cleavage
GGCAGAGCGCUACACAGCGUGGCAAAGUGGCUGUGGCUAGACUGCC [U9G A11U]	0.03
GGCAGAGCGCAACACAGCGUGGCACAGUGGCUGUGGCUAGACUGCC [U9G A25C]	0.13
GGCAGAGCGCAACACAGCGUGGCAUAGUGGCUGUGGCUAGACUGCC [U9G A25U]	0.14
GGCAGAGCGCAACACAGCGUGGCAGAGUGGCUGUGGCUAGACUGCC [U9G A25G]	0.06
GGCAGAGCGCAACACAGAGUGGCAAAGUGGCUGUGGCUAGACUGCC [U9G C18A]	0.07
GGCAGAGCGCAACACAGUGUGGCAAAGUGGCUGUGGCUAGACUGCC [U9G C18U]	0.09
GGCAGAGCGCAACACAGGGUGGCAAAGUGGCUGUGGCUAGACUGCC [U9G C18G]	0.04
GGCAGAGCGCAACACAGCGUGGCAAAGUGGCUGAGGCUAGACUGCC [U9G U34A]	0.04
GGCAGAGCGCAACACAGCGUGGCAAAGUGGCUGCGGCUAGACUGCC [U9G U34C]	0.06
GGCAGAGCGCAACACAGCGUGGCAAAGUGGCUGGGGCUAGACUGCC [U9G U34G]	0.05
GGCAGAGCGCAACACAGCGUGGCAAAUUGGCUGUGGCUAGACUGCC [U9G G27U]	0.06
GGCAGAGCGCAACACAGCGUGGCAAAAUGGCUGUGGCUAGACUGCC [U9G G27A]	0.07
GGCAGAGCGCAACACAGCGUGGCAAACUGGCUGUGGCUAGACUGCC [U9G G27C]	0.08
GGCAGAGCGCAACACAGCGUGGCAAAGUGGCUGUGGCUGGACUGCC [U9G A39G]	0.08
GGCAGAGCGCAACACAGCGUGGCAAAGUGGCUGUGGCUCGACUGCC [U9G A39C]	0.05
GGCAGAGCGCAACACAGCGUGGCAAAGUGGCUUUGGCUAGACUGCC [U9G G33U]	0.08
GGCAGAGCGCAACACAGCGUGGCAAAGUGGCUCUGGCUAGACUGCC [U9G G33C]	0.05
GGCAGAGCGCAACACAGCGUGGCAAAGUGGCUAUGGCUAGACUGCC [U9G G33A]	0.06
